From paper PMC4015189 (Cell, 2014)

B1: NuMA-tail II-GFP (domain or fragment, human, UniProt Q14980 1868-2091, looked up)
chain: SALLSLPGYRPTTRSSARRSQAGVSSGAPPGRNSFYMGTCQDEPEQLDDWNRIAELQQRNRVCPPHLKTCYPLESRPSLSLGTITDEEMKTGDPQETLRRASMQPIQIAEGTGITTRQQRKRVSLEPHQGPGTPESKKATSCFPRPMTPRDRHEGRKQSTTEAQKKAAPASTKQADRRQSMAFSILNTPKKLGNSLLRRGASKKALSKASPNTRSGTRRSPRIA
B2: NuMA-bonsai-tail II-GFP (other, human, UniProt Q14980 1-400, looked up)
chain: MTLHATRGAALLSWVNSLHVADPVEAVLQLQDCSIFIKIIDRIHGTEEGQQILKQPVSERLDFVCSFLQKNRKHPSSPECLVSAQKVLEGSELELAKMTMLLLYHSTMSSKSPRDWEQFEYKIQAELAVILKFVLDHEDGLNLNEDLENFLQKAPVPSTCSSTFPEELSPPSHQAKREIRFLELQKVASSSSGNNFLSGSPASPMGDILQTPQFQMRRLKKQLADERSNRDELELELAENRKLLTEKDAQIAMMQQRIDRLALLNEKQAASPLEPKELEELRDKNESLTMRLHETLKQCQDLKTEKSQMDRKINQLSEENGDLSFKLREFASHLQQLQDALNELTEEHSKATQEWLEKQAQLEKELSAALQDKKCLEEKNEILQGKLSQLEEHLSQLQDNSALLSLPGYRPTTRSSARRSQAGVSSGAPPGRNSFYMGTCQDEPEQLDDWNRIAELQQRNRVCPPHLKTCYPLESRPSLSLGTITDEEMKTGDPQETLRRASMQPIQIAEGTGITTRQQRKRVSLEPHQGPGTPESKKATSCFPRPMTPRDRHEGRKQSTTEAQKKAAPASTKQADRRQSMAFSILNTPKKLGNSLLRRGASKKALSKASPNTRSGTRRSPRIA
B3: NuMA NTD (domain or fragment, human, UniProt Q14980 1-400, looked up)
chain: MTLHATRGAALLSWVNSLHVADPVEAVLQLQDCSIFIKIIDRIHGTEEGQQILKQPVSERLDFVCSFLQKNRKHPSSPECLVSAQKVLEGSELELAKMTMLLLYHSTMSSKSPRDWEQFEYKIQAELAVILKFVLDHEDGLNLNEDLENFLQKAPVPSTCSSTFPEELSPPSHQAKREIRFLELQKVASSSSGNNFLSGSPASPMGDILQTPQFQMRRLKKQLADERSNRDELELELAENRKLLTEKDAQIAMMQQRIDRLALLNEKQAASPLEPKELEELRDKNESLTMRLHETLKQCQDLKTEKSQMDRKINQLSEENGDLSFKLREFASHLQQLQDALNELTEEHSKATQEWLEKQAQLEKELSAALQDKKCLEEKNEILQGKLSQLEEHLSQLQDN
B4: EB1-GFP (natural protein, human, UniProt Q15691 1-268, looked up)
chain: MAVNVYSTSVTSDNLSRHDMLAWINESLQLNLTKIEQLCSGAAYCQFMDMLFPGSIALKKVKFQAKLEHEYIQNFKILQAGFKRMGVDKIIPVDKLVKGKFQDNFEFVQWFKKFFDANYDGKDYDPVAARQGQETAVAPSLVAPALNKPKKPLTSSSAAPQRPISTQRTAAAPKAGPGVVRKNPGVGNGDDEAAELMQQVNVLKLTVEDLEKERDFYFGKLRNIELICQENEGENDPVLQRIVDILYATDEGFVIPDEGGPQEEQEEY

Experiments:
microtubules = test: single-molecule TIRF microscopy
SEC = target: the molecule itself; test: SEC
light scattering = target: the molecule itself; test: light scattering

| Binder | binding lifetime (microtubules) [s] | stoichiometry N (SEC) | stoichiometry N (light scattering) |
| --- | --- | --- | --- |
| B1 | 2.8 ± 0.2 |  |  |
| B2 | 3.6 ± 0.2 | 2 |  |
| B3 |  |  | 2 |
| B4 | 1.2 ± 0.2 |  |  |
